Measurements as given in patent publication US20150344570A1 (published 2015).
Changes are numbered by the printed parent chain. Numbers in names are those of the source.

B1: H240-Kn184/H240-Hl068/L73-k0 (antibody, human IgG1, kappa)
heavy 1: QDQLVQSGAEVKKPGASVKVSCKASGFNIKDTYIQWVRQAPGQGLEWMGRIDPLRKQTKYREKFEGRVTITADTSTNTAYMELSSLRSEDTAVYYCVRSGREFDYWGQGTLVTVSSASTKGPSVFPLAPSSKSTSGGTAALGCLVKDYFPEPVTVSWNSGALTSGVHTFPAVLQSSGLYSLSSVVTVPSSSLGTQTYICNVNHKPSNTKVDKKVEPKSCDKTHTCPPCPAPEEYWGPMVFLFPPKPKDTLMISRTPEVTCVVVDVSDEDPEVKFNWYVDGVEVHNAKTKPREEQYNATYRVVSVLTVLHQDWLNGKEYKCKVSNKDLPAPIEKTISKAKGQPREPQVCTLPPSRDELTKNQVSLWCLVKGFYPSDIAVEWESNGQPENNYKTTPPVLDSDGSFFLYSKLTVDKSRWQQGNVFSCSVMHEALHNHYTQKSLSLSP
heavy 2: QDQLVQSGAEVKKPGASVKVSCKASGFNIKDTYIQWVRQAPGQGLEWMGRIDPLRKQTKYREKFEGRVTITADTSTNTAYMELSSLRSEDTAVYYCVRSGREFDYWGQGTLVTVSSASTKGPSVFPLAPSSKSTSGGTAALGCLVKDYFPEPVTVSWNSGALTSGVHTFPAVLQSSGLYSLSSVVTVPSSSLGTQTYICNVNHKPSNTKVDKKVEPKSCDKTHTCPPCPAPELLGGPSVFLFPPKPKDTLMISRTPEVTCVVVDVSHEEPEVKFNWYVDGVEVHNAKTKPREEQYNSTYRVVSVLTVLHQDWLNGKEYKCKVSNDALPKPIEETISKAKGQPREPQVYTLPPSRCELTKNQVSLSCAVKGFYPSDIAVEWESNGQPENNYKTTPPVLDSDGSFFLVSKLTVDKSRWQQGNVFSCSVMHEALHNHYTQKSLSLSP
light: DIQMTQSPSSLSASVGDRVTITCRASQDIHKYIAWYQQKPGQAPRLLIQYTSTLQPGVPSRFSGSGSGTDYTFTISSLQPEDIATYYCLQYEQLRTFGGGTKVEIKRTVAAPSVFIFPPSDEQLKSGTASVVCLLNNFYPREAKVQWKVDNALQSGNSQESVTEQDSKDSTYSLSSTLTLSKADYEKHKVYACEVTHQGLSSPVTKSFNRGEC
notes: Anti-epiregulin heterodimerized IgG1, knobs-into-holes
B2: H240-Kn198/H240-Hl076/L73-k0 (antibody, human IgG1, kappa)
heavy 1: B1 heavy 1 with E233L, Y234Q, D269E, D326A
heavy 2: B1 heavy 2 with K329M
light: B1 light
notes: as for B1
B3: H240-Kn200/H240-Hl076/L73-k0 (antibody, human IgG1, kappa)
heavy 1: B1 heavy 1 with E233S, Y234Q, D269E, D326A
heavy 2: B1 heavy 2 with K329M
light: B1 light
notes: as for B1
B4: H240-Kn210/H240-Hl076/L73-k0 (antibody, human IgG1, kappa)
heavy 1: B1 heavy 1 with E233I, Y234Q, D269E, D326A
heavy 2: B1 heavy 2 with K329M
light: B1 light
notes: as for B1
B5: H240-Kn208/H240-Hl076/L73-k0 (antibody, human IgG1, kappa)
heavy 1: B1 heavy 1 with E233D, Y234Q, D269E, D326A
heavy 2: B1 heavy 2 with K329M
light: B1 light
notes: as for B1
B6: H240-Kn204/H240-Hl211/L73-k0 (antibody, human IgG1, kappa)
heavy 1: B1 heavy 1 with E233Y, Y234L, W235G, M238S, D267H, K289Y, Y295W, A297S, D326A
heavy 2: B1 heavy 2 with S238D, E269D, D325K, K329M, E333V
light: B1 light
notes: Anti-epiregulin heterodimerized IgG1, knobs-into-holes; L234Y/K290Y/Y296W in one H chain, S239D/A330M/K334V in the other
B7: H240-Kn209/H240-Hl076/L73-k0 (antibody, human IgG1, kappa)
heavy 1: B1 heavy 1 with E233Q, Y234Q, D269E, D326A
heavy 2: B1 heavy 2 with K329M
light: B1 light
notes: as for B1
B8: H240-Kn199/H240-Hl068/L73-k0 (antibody, human IgG1, kappa)
heavy 1: B1 heavy 1 with E233L
heavy 2: B1 heavy 2
light: B1 light
notes: as for B1
B9: H240-Kn202/H240-Hl076/L73-k0 (antibody, human IgG1, kappa)
heavy 1: B1 heavy 1 with Y234Q, D269E, D326A
heavy 2: B1 heavy 2 with K329M
light: B1 light
notes: as for B1
B10: H240-Kn203/H240-Hl068/L73-k0 (antibody, human IgG1, kappa)
heavy 1: B1 heavy 1 with E233F
heavy 2: B1 heavy 2
light: B1 light
notes: as for B1
B11: H240-Kn211/H240-Hl076/L73-k0 (antibody, human IgG1, kappa)
heavy 1: B1 heavy 1 with E233M, Y234Q, D269E, D326A
heavy 2: B1 heavy 2 with K329M
light: B1 light
notes: as for B1
B12: H240-Kn205/H240-Hl212/L73-k0 (antibody, human IgG1, kappa)
heavy 1: B1 heavy 1 with E233Y, Y234L, W235G, M238S, D267H, Y295W, A297C, D326A
heavy 2: B1 heavy 2 with S238D, E269D, D325K, K329A, E333V
light: B1 light
notes: Anti-epiregulin heterodimerized IgG1, knobs-into-holes; L234Y/Y296W/S298C in one H chain, S239D/K334V in the other
B13: H240-Kn207/H240-Hl076/L73-k0 (antibody, human IgG1, kappa)
heavy 1: B1 heavy 1 with E233V, Y234Q, D269E, D326A
heavy 2: B1 heavy 2 with K329M
light: B1 light
notes: as for B1
B14: H240-Kn201/H240-Hl076/L73-k0 (antibody, human IgG1, kappa)
heavy 1: B1 heavy 1 with E233F, Y234Q, D269E, D326A
heavy 2: B1 heavy 2 with K329M
light: B1 light
notes: as for B1
B15: H240-Kn189/H240-Hl068/L73-k0 (antibody, human IgG1, kappa)
heavy 1: B1 heavy 1 with E233S
heavy 2: B1 heavy 2
light: B1 light
notes: as for B1

Assays:
Assay in all cases: SPR (Biacore); KD of H240-Kn033/H240-Hl033/L73-k0 divided by KD of this variant
FcgRIIaR = target: T1, FcgRIIaR (human, UniProt P12318 34-217)
T1 construct: extracellular domain; also called FcγRIIa R; FcgRIIa type R; not shown: His tag attached to the C terminus
T1 sequence (looked up): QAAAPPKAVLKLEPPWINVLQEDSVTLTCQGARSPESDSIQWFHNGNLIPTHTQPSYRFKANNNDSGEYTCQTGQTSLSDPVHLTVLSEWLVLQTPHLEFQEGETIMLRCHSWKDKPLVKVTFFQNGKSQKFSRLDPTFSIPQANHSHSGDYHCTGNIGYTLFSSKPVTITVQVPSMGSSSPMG
Protocol: (§1) H240-Kn204/H240-Hl211/L73-k0 and H240-Kn205/H240-Hl212/L73-k0 were prepared according to the method of Reference Example 1, by combining H240-Kn204 as one of the H chains and L73-k0 as the L chains with H240-Hl211 as the other H chain, and by combining H240-Kn205 as one of the H chains and L73-k0 as the L chains with H240-Hl212 as the other H chain, and then expressing them. The binding of the prepared variants to FcgRIa, FcgRIIaR, FcgRIIaH, FcgRIIb, FcgRIIIaF, and FcgRIIIaV was measured according to the method of Reference Example 8.
(§2) “fold 2aR”, “fold 2aH”, “fold 2b”, “fold 3aF”, and “fold 3aV” show the relative binding activity of each variant to FcgRIIaR, FcgRIIaH, FcgRIIb, FcgRIIIaF, and FcgRIIIaV, respectively, when the binding activity of H240-Kn033/H240-Hl033/L73-k0, a variant produced by introducing only alterations that promote formation of a heterodimerized antibody into a native IgG1, is defined as 1. Specifically, they are values obtained by dividing the KD value of H240-Kn033/H240-Hl033/L73-k0 for each FcgR by the KD value of an individual variant for each FcgR.
(§3) Analysis of interaction between objective antibody and the FcγR was carried out using Biacore T100 (GE Healthcare), Biacore T200, Biacore A100, and Biacore 4000. HBS-EP+ (GE Healthcare) was used as the running buffer, and the measurement temperature was set to 25° C. Chips produced by immobilizing the antigen peptide by the amine coupling method to a Series S sensor Chip CM5 (GE Healthcare), chips produced by allowing preliminarily biotinylated antigen peptides to interact with and immobilize onto a Series S Sensor Chip SA (certified) (GE Healthcare), chips produced by immobilizing Protein L (ACTIGEN, BioVision) to Series S Sencor Chip CM5 (GE Healthcare), or chips produced by immobilizing Protein A/G (Thermo Scientific) to Series S Sencor Chip CM5 (GE Healthcare) were used. Antibodies of interest were captured onto these chips, and allowed to interact to each FcγR diluted with running buffer.

FcgRIIIaF = target: T2, FcgRIIIaF (human, UniProt P08637 17-208)
T2 construct: extracellular domain; also called FcγRIIIa F; 3aF; not shown: His tag attached to the C terminus
T2 sequence (P08637 17-208): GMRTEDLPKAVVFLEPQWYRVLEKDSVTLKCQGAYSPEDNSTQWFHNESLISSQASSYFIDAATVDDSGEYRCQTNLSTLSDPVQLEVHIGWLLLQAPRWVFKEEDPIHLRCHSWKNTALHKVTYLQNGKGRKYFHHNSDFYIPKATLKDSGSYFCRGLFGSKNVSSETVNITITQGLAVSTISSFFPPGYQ
Protocol: as §1, §2, §3

FcgRIIIaV = target: T3, FcgRIIIaV (human, UniProt P08637 17-208)
T3 construct: extracellular domain; also called FcγRIIIa V; 3aV; not shown: His tag attached to the C terminus
T3 sequence (P08637 17-208 F176V limits assumed): as the sequence (P08637 17-208) above, with F160V counted along it
Protocol: as §1, §2, §3

FcgRIIb = target: T4, FcgRIIb (human, UniProt P31994 43-217)
T4 construct: extracellular domain; also called FcγRIIb; 2b; not shown: His tag attached to the C terminus
T4 sequence (looked up): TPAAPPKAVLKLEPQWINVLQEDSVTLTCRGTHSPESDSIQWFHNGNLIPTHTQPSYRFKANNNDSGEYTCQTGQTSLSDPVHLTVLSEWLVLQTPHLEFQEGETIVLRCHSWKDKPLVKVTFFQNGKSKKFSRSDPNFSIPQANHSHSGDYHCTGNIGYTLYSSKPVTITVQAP
Protocol: as §1, §2, §3

FcgRIIaH = target: T5, FcgRIIaH (human, UniProt P12318 34-217)
T5 construct: extracellular domain; also called FcγRIIa H; FcgRIIa type H; not shown: His tag attached to the C terminus
T5 sequence (looked up): T1 sequence (looked up) with R134H
Protocol: as §1, §2, §3

Binder	fold 2aR (FcgRIIaR) [fold]	fold 3aF (FcgRIIIaF) [fold]	fold 3aV (FcgRIIIaV) [fold]	fold 2b (FcgRIIb) [fold]	fold 2aH (FcgRIIaH) [fold]
B1	27.4	132	141	22	7.4
B2	1.2	193	88.9	0.5	3.7
B3	0.9	121	81.4	0.5	2.3
B4	1.3	161	98	0.8	3.5
B5	1.5	161	120	1	1.7
B6	1.2	20.7	6.5	2.5	0.7
B7	0.6	121	77.4	0.4	2.1
B8	37	126	117	25.4	19.3
B9	1.2	181	126	0.8	1.4
B10	16.1	85.3	63.2	12.2	10.6
B11	1.3	153	92.3	0.8	2.6
B12	1.2	24.2	11.4	2.1	1.4
B13	1.1	153	98	0.6	3.1
B14	1	161	133	0.6	3.7
B15	32.2	90.6	92.3	22	10.8
